This note sets out measurements from the supplement of paper PMC10567573.

B1: RAB40A (parent)
chain: NWLGRPSKVLSLQDLCCRTIVSCT
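Further: lentivirally expressed fusions sorted by FACS into six bins by GFP to DsRed ratio, PSI derived from sequencing read proportions per bin multiplied by bin number.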

The variants in this data set derive from B1. In words: protein stability index of a GFP-peptide fusion (GPS, HEK-293T) (PSI 1-6); higher = more stable. As to conditions: c terminus: a fixed tail appended.
Consider NWLGRPSKVLSLQDLCCRTIVSCA [T24A], for which the protein stability index turned out to be 2.5.
In the case of NWLGRPSKVLSLQDLCCRTIVSCR [T24R], the protein stability index worked out at 2.89.
To NWLGRPSKVLSLQDLCCRTIVSCF [T24F] belongs 2.63.
Turning to NWLGRPSKVLSLQDLCCRTIVSCM [T24M], the protein stability index is 2.27.
To NWLGRPSKVLSLQDLCCRTIVSCS [T24S] belongs 2.62.
In the case of NWLGRPSKVLSLQDLCCRTIVSCP [T24P], the protein stability index amounted to 3.02.
Turning to NWLGRPSKVLSLQDLCCRTIVSCL [T24L], the protein stability index came out at 2.31.
For the variant NWLGRPSKVLSLQDLCCRTIVSCD [T24D], the protein stability index came out at 2.85.
Turning to NWLGRPSKVLSLQDLCCRTIVSCG [T24G], the protein stability index was 2.6.
As to NWLGRPSKVLSLQDLCCRTIVSCN [T24N], the protein stability index came to 2.87.
Take NWLGRPSKVLSLQDLCCRTIVSCY [T24Y]: the protein stability index was 2.13.
Take NWLGRPSKVLSLQDLCCRTIVSCQ [T24Q]: the protein stability index amounted to 3.19.
As for NWLGRPSKVLSLQDLCCRTIVSCE [T24E], the protein stability index turned out to be 2.58.
Regarding NWLGRPSKVLSLQDLCCRTIVSCV [T24V], the protein stability index stood at 2.28.
To NWLGRPSKVLSLQDLCCRTIVSCH [T24H] belongs 2.64; to NWLGRPSKVLSLQDLCCRTIVSCW [T24W], 2.2; to NWLGRPSKVLSLQDLCCRTIVSCK [T24K], 3.2.
For the variant NWLGRPSKVLSLQDLCCRTIVSCC [T24C], the protein stability index is 2.07.
To NWLGRPSKVLSLQDLCCRTIVSCI [T24I] belongs 1.58; to NWLGRPSKVLSLQDLCCRWIVSCT [T19W], 1.97.
Consider NWLGRPSKVLSLQDLCCRRIVSCT [T19R], for which the protein stability index turned out to be 2.19.
NWLGRPSKVLSLQDLCCRMIVSCT [T19M]: the protein stability index amounted to 2.27.
On to NWLGRPSKVLSLQDLCCRLIVSCT [T19L], for which the protein stability index worked out at 2.16.
Regarding NWLGRPSKVLSLQDLCCRCIVSCT [T19C], the protein stability index is 2.04.
Turning to NWLGRPSKVLSLQDLCCRAIVSCT [T19A], the protein stability index turned out to be 2.52.
Regarding NWLGRPSKVLSLQDLCCRKIVSCT [T19K], the protein stability index turned out to be 2.69.
For the variant NWLGRPSKVLSLQDLCCRNIVSCT [T19N], the protein stability index is 2.91.
Consider NWLGRPSKVLSLQDLCCRSIVSCT [T19S], for which the protein stability index amounted to 2.51.
Consider NWLGRPSKVLSLQDLCCRIIVSCT [T19I], for which the protein stability index was determined as 2.6.
For the variant NWLGRPSKVLSLQDLCCRHIVSCT [T19H], the protein stability index came out at 2.41.
Regarding NWLGRPSKVLSLQDLCCRGIVSCT [T19G], the protein stability index is 2.07.
With NWLGRPSKVLSLQDLCCRDIVSCT [T19D], the protein stability index amounted to 2.64.
On to NWLGRPSKVLSLQDLCCRYIVSCT [T19Y], for which the protein stability index came out at 2.23.
On to NWLGRPSKVLSLQDLCCRFIVSCT [T19F], for which the protein stability index amounted to 2.26.
On to NWLGRPSKVLSLQDLCCRQIVSCT [T19Q], for which the protein stability index is 2.31.
To NWLGRPSKVLSLQDLCCRPIVSCT [T19P] belongs 1.86.
In the case of NWLGRPSKVLSLQDLCCRVIVSCT [T19V], the protein stability index is 2.22.
Regarding NWLGRPSKVLSLQDLCCREIVSCT [T19E], the protein stability index worked out at 2.53.
As to NWLGRPSKVLSLQDLCCRTIVTCT [S22T], the protein stability index worked out at 2.4.
As to NWLGRPSKVLSLQDLCCRTIVHCT [S22H], the protein stability index is 2.26.
Turning to NWLGRPSKVLSLQDLCCRTIVMCT [S22M], the protein stability index was determined as 2.61.
To NWLGRPSKVLSLQDLCCRTIVQCT [S22Q] belongs 2.59; to NWLGRPSKVLSLQDLCCRTIVACT [S22A], 2.23.
As for NWLGRPSKVLSLQDLCCRTIVCCT [S22C], the protein stability index amounted to 2.59.
To NWLGRPSKVLSLQDLCCRTIVNCT [S22N] belongs 2.69; to NWLGRPSKVLSLQDLCCRTIVLCT [S22L], 2.31.
In the case of NWLGRPSKVLSLQDLCCRTIVECT [S22E], the protein stability index is 2.57.
To NWLGRPSKVLSLQDLCCRTIVVCT [S22V] belongs 1.77; to NWLGRPSKVLSLQDLCCRTIVDCT [S22D], 2.83.
Consider NWLGRPSKVLSLQDLCCRTIVFCT [S22F], for which the protein stability index turned out to be 2.47.
Under NWLGRPSKVLSLQDLCCRTIVYCT [S22Y] stands 1.95; under NWLGRPSKVLSLQDLCCRTIVICT [S22I], 1.88.
Regarding NWLGRPSKVLSLQDLCCRTIVPCT [S22P], the protein stability index amounted to 2.
For the variant NWLGRPSKVLSLQDLCCRTIVGCT [S22G], the protein stability index amounted to 2.57.
NWLGRPSKVLSLQDLCCRTIVWCT [S22W]: the protein stability index came out at 2.04.
With NWLGRPSKVLSLQDLCCRTIVRCT [S22R], the protein stability index is 2.77.
As to NWLGRPSKVLSLQDLCCRTIVKCT [S22K], the protein stability index turned out to be 2.75.
Under NWLGRPSKVLSLQDLCCCTIVSCT [R18C] stands 2.35; under NWLGRPSKVLSLQDLCCVTIVSCT [R18V], 2.39.
With NWLGRPSKVLSLQDLCCGTIVSCT [R18G], the protein stability index was found to be 2.
On to NWLGRPSKVLSLQDLCCKTIVSCT [R18K], for which the protein stability index was 2.65.
In the case of NWLGRPSKVLSLQDLCCATIVSCT [R18A], the protein stability index was found to be 2.03.
Regarding NWLGRPSKVLSLQDLCCQTIVSCT [R18Q], the protein stability index was 2.26.
With NWLGRPSKVLSLQDLCCSTIVSCT [R18S], the protein stability index is 2.58.
As to NWLGRPSKVLSLQDLCCFTIVSCT [R18F], the protein stability index was 1.87.
To NWLGRPSKVLSLQDLCCETIVSCT [R18E] belongs 2.49; to NWLGRPSKVLSLQDLCCYTIVSCT [R18Y], 1.73.
In the case of NWLGRPSKVLSLQDLCCPTIVSCT [R18P], the protein stability index amounted to 1.61.
For NWLGRPSKVLSLQDLCCMTIVSCT [R18M], the protein stability index turned out to be 1.72.
For the variant NWLGRPSKVLSLQDLCCHTIVSCT [R18H], the protein stability index came out at 1.98.
Take NWLGRPSKVLSLQDLCCLTIVSCT [R18L]: the protein stability index was determined as 2.11.
With NWLGRPSKVLSLQDLCCITIVSCT [R18I], the protein stability index amounted to 1.68.
Consider NWLGRPSKVLSLQDLCCWTIVSCT [R18W], for which the protein stability index amounted to 1.83.
Regarding NWLGRPSKVLSLQDLCCNTIVSCT [R18N], the protein stability index is 2.5.
For the variant NWLGRPSKVLSLQDLCCDTIVSCT [R18D], the protein stability index amounted to 1.99.
To NWLGRPSKVLSLQDLCCTTIVSCT [R18T] belongs 2.26; to NWLGRPSKVLSLQDLCCRTIVSHT [C23H], 2.69.
For the variant NWLGRPSKVLSLQDLCCRTIVSTT [C23T], the protein stability index was found to be 2.66.
To NWLGRPSKVLSLQDLCCRTIVSFT [C23F] belongs 2.33; to NWLGRPSKVLSLQDLCCRTIVSET [C23E], 2.8.
Under NWLGRPSKVLSLQDLCCRTIVSKT [C23K] stands 2.92; under NWLGRPSKVLSLQDLCCRTIVSVT [C23V], 2.21; under NWLGRPSKVLSLQDLCCRTIVSQT [C23Q], 3.46.
Under NWLGRPSKVLSLQDLCCRTIVSST [C23S] stands 2.95; under NWLGRPSKVLSLQDLCCRTIVSRT [C23R], 2.92.
On to NWLGRPSKVLSLQDLCCRTIVSLT [C23L], for which the protein stability index was found to be 2.37.
NWLGRPSKVLSLQDLCCRTIVSYT [C23Y]: the protein stability index was 2.35.
Regarding NWLGRPSKVLSLQDLCCRTIVSIT [C23I], the protein stability index stood at 2.33.
To NWLGRPSKVLSLQDLCCRTIVSGT [C23G] belongs 3.28; to NWLGRPSKVLSLQDLCCRTIVSDT [C23D], 3.12.
To NWLGRPSKVLSLQDLCCRTIVSAT [C23A] belongs 2.74; to NWLGRPSKVLSLQDLCCRTIVSMT [C23M], 2.33.
Under NWLGRPSKVLSLQDLCCRTIVSNT [C23N] stands 2.93; under NWLGRPSKVLSLQDLCCRTIVSPT [C23P], 2.68.
